Assay results from patent US20260001928A1 (CORTERIA PHARMACEUTICALS, priority 2022, published 2026).
*1 amine or outer side, *2 acyl side, *3 side chain or, on linkers, in order; H or OH if unused. Where no end group is shown, it is not given here. Side-chain parts run from the residue outwards. [ ]: non-standard residue; d: D form. The star is where a group is joined. C16 diacid = O=C(O)CCCCCCCCCCCCCCC(=O)*; γGlu = O=C(O)[C@H](CCC(=O)[*:2])N[*:1]; C14 diacid = O=C(O)CCCCCCCCCCCCC(=O)*; C12 diacid = O=C(O)CCCCCCCCCCC(=O)*; NMeI = CC[C@H](C)[C@H](NC)C(=O)O; Api = NC1(C(=O)O)CCNCC1; Pentanoyl = CCCCC(=O)*; AEEA = NCCOCCOCC(=O)O; Aib = CC(C)(N)C(=O)O; Propionyl = CCC(=O)*

How the values were obtained:
CRF1R receptor = target: T1, CRF1R receptor (UniProt P34998 24-415, limits assumed); test: cell-based or functional assay
T1 sequence (looked up): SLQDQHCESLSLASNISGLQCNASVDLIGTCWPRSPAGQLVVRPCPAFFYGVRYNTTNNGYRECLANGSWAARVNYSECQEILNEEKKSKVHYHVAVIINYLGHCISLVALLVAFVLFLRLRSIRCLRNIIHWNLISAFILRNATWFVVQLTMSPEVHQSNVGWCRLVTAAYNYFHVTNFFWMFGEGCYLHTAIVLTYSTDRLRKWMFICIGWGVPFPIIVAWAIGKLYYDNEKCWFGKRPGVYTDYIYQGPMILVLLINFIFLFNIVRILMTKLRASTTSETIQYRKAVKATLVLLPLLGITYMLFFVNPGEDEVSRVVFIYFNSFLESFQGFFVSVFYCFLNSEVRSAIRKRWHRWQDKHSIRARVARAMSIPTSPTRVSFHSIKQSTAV

[1] = target: human corticotropin-releasing factor 2a (CRF2a receptor) (human), Q13324; test: cell-based or functional assay
human corticotropin-releasing factor 2a (CRF2a receptor) (human), Q13324, sequence (Q13324 20-411): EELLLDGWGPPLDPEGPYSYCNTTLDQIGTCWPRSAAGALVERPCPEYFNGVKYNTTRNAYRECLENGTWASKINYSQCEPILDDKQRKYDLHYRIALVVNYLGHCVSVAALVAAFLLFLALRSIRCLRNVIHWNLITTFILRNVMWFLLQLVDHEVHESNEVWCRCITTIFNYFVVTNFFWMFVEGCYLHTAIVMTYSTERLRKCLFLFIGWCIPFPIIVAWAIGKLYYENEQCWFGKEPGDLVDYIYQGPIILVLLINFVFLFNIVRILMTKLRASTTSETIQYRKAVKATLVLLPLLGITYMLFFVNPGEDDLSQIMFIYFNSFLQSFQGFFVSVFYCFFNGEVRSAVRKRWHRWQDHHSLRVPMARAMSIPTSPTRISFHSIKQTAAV

B1: SEQ ID NO 179 (peptide)
peptide: [NMeI]VLSLD[dV]PIKLK([AEEA-AEEA-γGlu-γGlu-C14 diacid])KILLEQEKQKKQREQAETN[Aib]QILAQV-NH2
modifications: N-terminus assumed
SMILES: CC[C@H](C)[C@H](NC)C(=O)N[C@H](C(=O)N[C@@H](CC(C)C)C(=O)N[C@@H](CO)C(=O)N[C@@H](CC(C)C)C(=O)N[C@@H](CC(=O)O)C(=O)N[C@@H](C(=O)N1CCC[C@H]1C(=O)N[C@H](C(=O)N[C@@H](CCCCN)C(=O)N[C@@H](CC(C)C)C(=O)N[C@@H](CCCCNC(=O)COCCOCCNC(=O)COCCOCCNC(=O)CC[C@H](NC(=O)CC[C@H](NC(=O)CCCCCCCCCCCCC(=O)O)C(=O)O)C(=O)O)C(=O)N[C@@H](CCCCN)C(=O)N[C@H](C(=O)N[C@@H](CC(C)C)C(=O)N[C@@H](CC(C)C)C(=O)N[C@@H](CCC(=O)O)C(=O)N[C@@H](CCC(N)=O)C(=O)N[C@@H](CCC(=O)O)C(=O)N[C@@H](CCCCN)C(=O)N[C@@H](CCC(N)=O)C(=O)N[C@@H](CCCCN)C(=O)N[C@@H](CCCCN)C(=O)N[C@@H](CCC(N)=O)C(=O)N[C@@H](CCCNC(=N)N)C(=O)N[C@@H](CCC(=O)O)C(=O)N[C@@H](CCC(N)=O)C(=O)N[C@@H](C)C(=O)N[C@@H](CCC(=O)O)C(=O)N[C@H](C(=O)N[C@@H](CC(N)=O)C(=O)NC(C)(C)C(=O)N[C@@H](CCC(N)=O)C(=O)N[C@H](C(=O)N[C@@H](CC(C)C)C(=O)N[C@@H](C)C(=O)N[C@@H](CCC(N)=O)C(=O)N[C@H](C(N)=O)C(C)C)[C@@H](C)CC)[C@@H](C)O)[C@@H](C)CC)[C@@H](C)CC)C(C)C)C(C)C
Emax (% I) (CRF1R receptor): -4% | EC50 [nM] (cAMP) [1]: 15.6 nM

B2: SEQ ID NO 6 (peptide)
peptide: Propionyl-VLSLD[dV]PIKLK([γGlu-C16 diacid])QILLKQERQKKQREQAEKNKQILEQV-NH2
SMILES: CCC(=O)N[C@H](C(=O)N[C@@H](CC(C)C)C(=O)N[C@@H](CO)C(=O)N[C@@H](CC(C)C)C(=O)N[C@@H](CC(=O)O)C(=O)N[C@@H](C(=O)N1CCC[C@H]1C(=O)N[C@H](C(=O)N[C@@H](CCCCN)C(=O)N[C@@H](CC(C)C)C(=O)N[C@@H](CCCCNC(=O)CC[C@H](NC(=O)CCCCCCCCCCCCCCC(=O)O)C(=O)O)C(=O)N[C@@H](CCC(N)=O)C(=O)N[C@H](C(=O)N[C@@H](CC(C)C)C(=O)N[C@@H](CC(C)C)C(=O)N[C@@H](CCCCN)C(=O)N[C@@H](CCC(N)=O)C(=O)N[C@@H](CCC(=O)O)C(=O)N[C@@H](CCCNC(=N)N)C(=O)N[C@@H](CCC(N)=O)C(=O)N[C@@H](CCCCN)C(=O)N[C@@H](CCCCN)C(=O)N[C@@H](CCC(N)=O)C(=O)N[C@@H](CCCNC(=N)N)C(=O)N[C@@H](CCC(=O)O)C(=O)N[C@@H](CCC(N)=O)C(=O)N[C@@H](C)C(=O)N[C@@H](CCC(=O)O)C(=O)N[C@@H](CCCCN)C(=O)N[C@@H](CC(N)=O)C(=O)N[C@@H](CCCCN)C(=O)N[C@@H](CCC(N)=O)C(=O)N[C@H](C(=O)N[C@@H](CC(C)C)C(=O)N[C@@H](CCC(=O)O)C(=O)N[C@@H](CCC(N)=O)C(=O)N[C@H](C(N)=O)C(C)C)[C@@H](C)CC)[C@@H](C)CC)[C@@H](C)CC)C(C)C)C(C)C
EC50 (CRF1R receptor): 166 nM | Emax (% I) (CRF1R receptor): 56% | EC50 [nM] (cAMP) [1]: 0.09 nM

B3: SEQ ID NO 181 (peptide)
peptide: Pentanoyl-VLSLD[dV]PIKLK([AEEA-AEEA-γGlu-γGlu-C14 diacid])KILLEQEKQKKQREQAETN[Aib]QILAQV-NH2
SMILES: CCCCC(=O)N[C@H](C(=O)N[C@@H](CC(C)C)C(=O)N[C@@H](CO)C(=O)N[C@@H](CC(C)C)C(=O)N[C@@H](CC(=O)O)C(=O)N[C@@H](C(=O)N1CCC[C@H]1C(=O)N[C@H](C(=O)N[C@@H](CCCCN)C(=O)N[C@@H](CC(C)C)C(=O)N[C@@H](CCCCNC(=O)COCCOCCNC(=O)COCCOCCNC(=O)CC[C@H](NC(=O)CC[C@H](NC(=O)CCCCCCCCCCCCC(=O)O)C(=O)O)C(=O)O)C(=O)N[C@@H](CCCCN)C(=O)N[C@H](C(=O)N[C@@H](CC(C)C)C(=O)N[C@@H](CC(C)C)C(=O)N[C@@H](CCC(=O)O)C(=O)N[C@@H](CCC(N)=O)C(=O)N[C@@H](CCC(=O)O)C(=O)N[C@@H](CCCCN)C(=O)N[C@@H](CCC(N)=O)C(=O)N[C@@H](CCCCN)C(=O)N[C@@H](CCCCN)C(=O)N[C@@H](CCC(N)=O)C(=O)N[C@@H](CCCNC(=N)N)C(=O)N[C@@H](CCC(=O)O)C(=O)N[C@@H](CCC(N)=O)C(=O)N[C@@H](C)C(=O)N[C@@H](CCC(=O)O)C(=O)N[C@H](C(=O)N[C@@H](CC(N)=O)C(=O)NC(C)(C)C(=O)N[C@@H](CCC(N)=O)C(=O)N[C@H](C(=O)N[C@@H](CC(C)C)C(=O)N[C@@H](C)C(=O)N[C@@H](CCC(N)=O)C(=O)N[C@H](C(N)=O)C(C)C)[C@@H](C)CC)[C@@H](C)O)[C@@H](C)CC)[C@@H](C)CC)C(C)C)C(C)C
Emax (% I) (CRF1R receptor): 9% | EC50 [nM] (cAMP) [1]: 24.7 nM

B4: SEQ ID NO 180 (peptide)
peptide: Pentanoyl-VLSLD[dV]PIKLK([AEEA-AEEA-γGlu-C14 diacid])KILLEQEKQKKQREQAETN[Aib]QILAQV-NH2
SMILES: CCCCC(=O)N[C@H](C(=O)N[C@@H](CC(C)C)C(=O)N[C@@H](CO)C(=O)N[C@@H](CC(C)C)C(=O)N[C@@H](CC(=O)O)C(=O)N[C@@H](C(=O)N1CCC[C@H]1C(=O)N[C@H](C(=O)N[C@@H](CCCCN)C(=O)N[C@@H](CC(C)C)C(=O)N[C@@H](CCCCNC(=O)COCCOCCNC(=O)COCCOCCNC(=O)CC[C@H](NC(=O)CCCCCCCCCCCCC(=O)O)C(=O)O)C(=O)N[C@@H](CCCCN)C(=O)N[C@H](C(=O)N[C@@H](CC(C)C)C(=O)N[C@@H](CC(C)C)C(=O)N[C@@H](CCC(=O)O)C(=O)N[C@@H](CCC(N)=O)C(=O)N[C@@H](CCC(=O)O)C(=O)N[C@@H](CCCCN)C(=O)N[C@@H](CCC(N)=O)C(=O)N[C@@H](CCCCN)C(=O)N[C@@H](CCCCN)C(=O)N[C@@H](CCC(N)=O)C(=O)N[C@@H](CCCNC(=N)N)C(=O)N[C@@H](CCC(=O)O)C(=O)N[C@@H](CCC(N)=O)C(=O)N[C@@H](C)C(=O)N[C@@H](CCC(=O)O)C(=O)N[C@H](C(=O)N[C@@H](CC(N)=O)C(=O)NC(C)(C)C(=O)N[C@@H](CCC(N)=O)C(=O)N[C@H](C(=O)N[C@@H](CC(C)C)C(=O)N[C@@H](C)C(=O)N[C@@H](CCC(N)=O)C(=O)N[C@H](C(N)=O)C(C)C)[C@@H](C)CC)[C@@H](C)O)[C@@H](C)CC)[C@@H](C)CC)C(C)C)C(C)C
Emax (% I) (CRF1R receptor): 2% | EC50 [nM] (cAMP) [1]: 10.7 nM

B5: SEQ ID NO 182 (peptide)
peptide: Ac-IVLSLD[dV]PIKLK([γGlu-C12 diacid])KILLEQEKQKKQREQAETN[Aib]QILAQV-NH2
SMILES: CC[C@H](C)[C@H](NC(C)=O)C(=O)N[C@H](C(=O)N[C@@H](CC(C)C)C(=O)N[C@@H](CO)C(=O)N[C@@H](CC(C)C)C(=O)N[C@@H](CC(=O)O)C(=O)N[C@@H](C(=O)N1CCC[C@H]1C(=O)N[C@H](C(=O)N[C@@H](CCCCN)C(=O)N[C@@H](CC(C)C)C(=O)N[C@@H](CCCCNC(=O)CC[C@H](NC(=O)CCCCCCCCCCC(=O)O)C(=O)O)C(=O)N[C@@H](CCCCN)C(=O)N[C@H](C(=O)N[C@@H](CC(C)C)C(=O)N[C@@H](CC(C)C)C(=O)N[C@@H](CCC(=O)O)C(=O)N[C@@H](CCC(N)=O)C(=O)N[C@@H](CCC(=O)O)C(=O)N[C@@H](CCCCN)C(=O)N[C@@H](CCC(N)=O)C(=O)N[C@@H](CCCCN)C(=O)N[C@@H](CCCCN)C(=O)N[C@@H](CCC(N)=O)C(=O)N[C@@H](CCCNC(=N)N)C(=O)N[C@@H](CCC(=O)O)C(=O)N[C@@H](CCC(N)=O)C(=O)N[C@@H](C)C(=O)N[C@@H](CCC(=O)O)C(=O)N[C@H](C(=O)N[C@@H](CC(N)=O)C(=O)NC(C)(C)C(=O)N[C@@H](CCC(N)=O)C(=O)N[C@H](C(=O)N[C@@H](CC(C)C)C(=O)N[C@@H](C)C(=O)N[C@@H](CCC(N)=O)C(=O)N[C@H](C(N)=O)C(C)C)[C@@H](C)CC)[C@@H](C)O)[C@@H](C)CC)[C@@H](C)CC)C(C)C)C(C)C
Emax (% I) (CRF1R receptor): 1% | EC50 [nM] (cAMP) [1]: 1.88 nM

B6: SEQ ID NO 183 (peptide)
peptide: Ac-IVLSLD[dV]PIKLK([γGlu-C12 diacid])KILLEQEKQKKQREQAETN[Api]QILAQV-NH2
SMILES: CC[C@H](C)[C@H](NC(C)=O)C(=O)N[C@H](C(=O)N[C@@H](CC(C)C)C(=O)N[C@@H](CO)C(=O)N[C@@H](CC(C)C)C(=O)N[C@@H](CC(=O)O)C(=O)N[C@@H](C(=O)N1CCC[C@H]1C(=O)N[C@H](C(=O)N[C@@H](CCCCN)C(=O)N[C@@H](CC(C)C)C(=O)N[C@@H](CCCCNC(=O)CC[C@H](NC(=O)CCCCCCCCCCC(=O)O)C(=O)O)C(=O)N[C@@H](CCCCN)C(=O)N[C@H](C(=O)N[C@@H](CC(C)C)C(=O)N[C@@H](CC(C)C)C(=O)N[C@@H](CCC(=O)O)C(=O)N[C@@H](CCC(N)=O)C(=O)N[C@@H](CCC(=O)O)C(=O)N[C@@H](CCCCN)C(=O)N[C@@H](CCC(N)=O)C(=O)N[C@@H](CCCCN)C(=O)N[C@@H](CCCCN)C(=O)N[C@@H](CCC(N)=O)C(=O)N[C@@H](CCCNC(=N)N)C(=O)N[C@@H](CCC(=O)O)C(=O)N[C@@H](CCC(N)=O)C(=O)N[C@@H](C)C(=O)N[C@@H](CCC(=O)O)C(=O)N[C@H](C(=O)N[C@@H](CC(N)=O)C(=O)NC1(C(=O)N[C@@H](CCC(N)=O)C(=O)N[C@H](C(=O)N[C@@H](CC(C)C)C(=O)N[C@@H](C)C(=O)N[C@@H](CCC(N)=O)C(=O)N[C@H](C(N)=O)C(C)C)[C@@H](C)CC)CCNCC1)[C@@H](C)O)[C@@H](C)CC)[C@@H](C)CC)C(C)C)C(C)C
Emax (% I) (CRF1R receptor): 11% | EC50 [nM] (cAMP) [1]: 2.47 nM
